Data published in US20190016816A1 (APTEVO RESEARCH AND DEVELOPMENT, published 2019).

Assays:
human CD137 on cells [1] = biological target: T1, human CD137 on cells (human, UniProt Q07011 24-255); assay: cell-based or functional assay
[2] = biological target: cynomolgus CD137 on cells (cynomolgus macaque, UniProt A9YYE7 24-254); assay: cell-based or functional assay
FcγRIIa (CD32a His131) = biological target: T2, FcγRIIa (CD32a His131) (UniProt P12318 34-317, limits assumed); assay: flow cytometry, CHO cells stably expressing CD32a His131, fluorescent anti-human IgG secondary, MFI (mean)
T2 construct: whole, on cells; allotype His131 as printed
T2 sequence (looked up): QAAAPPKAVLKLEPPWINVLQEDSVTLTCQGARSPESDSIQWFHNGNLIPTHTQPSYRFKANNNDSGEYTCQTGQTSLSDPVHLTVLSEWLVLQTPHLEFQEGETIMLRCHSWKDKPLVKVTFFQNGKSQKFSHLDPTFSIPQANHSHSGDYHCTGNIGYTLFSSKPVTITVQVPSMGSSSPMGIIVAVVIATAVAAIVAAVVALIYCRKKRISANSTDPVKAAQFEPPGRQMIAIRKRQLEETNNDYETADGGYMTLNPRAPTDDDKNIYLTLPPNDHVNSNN
Excerpt: ALG.APV-210 contains mutations introduced to prevent interaction with Fcγ receptors (FcγR) that could lead to FcγR-mediated T-cell activation or ADCC, ADCP, CDC etc. Binding of ALG.APV-210 was therefore tested on CHO cell transfectants stably expressing the following FcγR: FcγRI (CD64), FcγRIIa (CD32a His131), FcγRIIb (CD32b), FcγRIIIa (CD16a Val158 and CD16a Phe158), and FcγRIIIb (CD16b). Untransfected CHO cells were used as negative control. A control human IgG1 molecule was used as a positive control. Different concentrations of ALG.APV-210 or control IgG1 were incubated with the FcγR-expressing cell lines, washed, and labeled with a secondary anti-human IgG reagent. Binding of ALG.APV-210 and the control IgG1 was detected by flow cytometry.

human CD137 on cells [3] = biological target: T1, human CD137 on cells; assay: flow cytometry, CD8 T cells gated from CD3-stimulated human PBMC, biotinylated antibody + streptavidin-APC, exp 1, n=3 donors
Protocol: (§1) Following 48 h of incubation with or without CD3, human and cynomolgus PBMC were harvested, pooled, recounted and diluted in FACS buffer (PBS+0.5% BSA, 0.05% NaN₃) to a concentration of 5×10⁶ cells/mL. 50 μL (0.25×10⁶ cells) of cell solution was added to a 96-well FACS staining plate (Falcon #351190). Following 10 min of Fc-blocking in RT using Beriglobin (hIgG, 200 μg/mL), cells were washed in FACS buffer and then incubated for 1 h in 4° C. with 100 μL of the biotinylated ALG.APV-210 or negative control. […] Cells were analysed for ALG.APV-210 binding using flow cytometry by gating on viable, single cells expressing CD3 and CD8. MFI values (FMO subtracted) from 2 independent experiments as well as normalized pooled data from 2 experiments and EC₅₀-values were determined and plotted using GraphPad Prism 7, non-linear regression log (agonist) vs. normalized response—variable slope, n=6 donors/group.
In ELISA tests, the binding of biotinylated ALG.APV-210 to CD137 was similar to that of the non-biotinylated ALG.APV-210 (0.6 nM vs. 0.7 nM). The binding (EC₅₀) of the biotinylated ALG.APV-210 to its immunomodulatory target CD137 when expressed on activated primary human and cynomolgus CD8 T cells from CD3 stimulated PBMC was assessed and compared between the two species as well as to unstimulated cells. […]

human CD137 on cells [4] = biological target: T1, human CD137 on cells; assay: flow cytometry, normalized percentage of CD8 T cells (gated from CD3-stimulated human PBMC) bound by the biotinylated antibody, pooled data of 2 exp, n=6 donors
Protocol: as §1, with “control. The antibodies were added in a serial dilution starting either at 5 μg/mL titrating down in a 12 step ⅓ dilution down to […] (exp 1) or 1 μg/mL titrating down in a 12 step ½ dilution down to 0.0005 μg/mL (exp 2).” for “control.”

T1 sequence (Q07011 24-255 limits assumed): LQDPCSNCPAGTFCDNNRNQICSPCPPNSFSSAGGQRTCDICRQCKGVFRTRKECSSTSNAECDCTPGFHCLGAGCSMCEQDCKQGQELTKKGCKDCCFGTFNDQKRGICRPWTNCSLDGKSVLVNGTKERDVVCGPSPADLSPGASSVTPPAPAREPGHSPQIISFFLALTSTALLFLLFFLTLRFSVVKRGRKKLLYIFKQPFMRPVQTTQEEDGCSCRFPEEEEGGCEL
Chain of cynomolgus CD137 on cells (A9YYE7 entry or part of it): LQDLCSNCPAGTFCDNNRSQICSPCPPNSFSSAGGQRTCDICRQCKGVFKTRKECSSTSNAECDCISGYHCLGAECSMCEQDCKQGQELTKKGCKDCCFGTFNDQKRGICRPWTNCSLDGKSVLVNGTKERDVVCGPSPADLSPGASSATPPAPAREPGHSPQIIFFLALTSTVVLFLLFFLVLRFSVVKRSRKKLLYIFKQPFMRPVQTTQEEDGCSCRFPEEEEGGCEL

B1: ALG.APV-210 (bispecific antibody)
chain: EVQLLESGGGLVQPGGSLRLSCAASGFTFSHGSMYWVRQAPGKGLEWVSSISSGSGSTYYADSVKGRFTISHDNSKNTLYLQMNSLRAEDTAVYYCARSSYYGSYYSIDYWGQGTLVTVSSGGGGSGGGGSGGGGSGGGGSDIQMTQSPSSLSASVGDRVTITCRASQSISSYLNWYQQKPGKAPKLLIYAASSLQSGVPSRFSGSGSGTDFTLTISSLQPEDFATYYCQQYYDNLPTFGQGTKLEIKEPKSSDKTHTCPPCPAPEAAGAPSVFLFPPKPKDTLMISRTPEVTCVVVDVSHEDPEVKFNWYVDGVEVHNAKTKPREEQYNSTYRVVSVLTVLHQDWLNGKEYKCAVSNKALPAPIEKTISKAKGQPREPQVYTLPPSRDELTKNQVSLTCLVKGFYPSDIAVEWESNGQPENNYKTTPPVLDSDGSFFLYSKLTVDKSRWQQGNVFSCSVMHEALHNHYTQKSLSLSPGSGGGGSGGGGSGGGGSPSEVQLLESGGGLVQPGGSLRLSCAASGFTFSSYAMSWVRQAPGKCLEWVSAISGSGGSTYYADSVKGRFTISRDNSKNTLYLQMNSLRAEDTAVYYCARYYGGYYSAWMDYWGQGTLVTVSSGGGGSGGGGSGGGGSGGGGSDIQMTQSPSSLSASVGDRVTITCRASQSISSFLNWYQQKPGKAPKLLIYAASSLQSGVPSRFSGSGSGTDFTLTISSLQPEDSATYYCQQTYGYLHTFGCGTKLEIKR
notes: Optimized ADAPTIR scFv-Fc-scFv homodimer with stabilizing disulfide in the 1210 scFv; also called 5T4-CD137 bispecific antibody
Human CD137 on cells [1]
  EC50 (nM), IFNγ release of human CD8 T cells on plate immobilized 5T4-Fc and anti-CD3: 0.2 nM
[2]
  EC50 (nM), IFNγ release of cynomolgus CD8 T cells on plate immobilized 5T4-Fc and anti-CD3: 0.4 nM
FcγRIIa (CD32a His131)
  binding result: no binding (tested: 1000 nM)

B2: biotinylated ALG.APV-210 (bispecific antibody)
chain: EVQLLESGGGLVQPGGSLRLSCAASGFTFSHGSMYWVRQAPGKGLEWVSSISSGSGSTYYADSVKGRFTISHDNSKNTLYLQMNSLRAEDTAVYYCARSSYYGSYYSIDYWGQGTLVTVSSGGGGSGGGGSGGGGSGGGGSDIQMTQSPSSLSASVGDRVTITCRASQSISSYLNWYQQKPGKAPKLLIYAASSLQSGVPSRFSGSGSGTDFTLTISSLQPEDFATYYCQQYYDNLPTFGQGTKLEIKEPKSSDKTHTCPPCPAPEAAGAPSVFLFPPKPKDTLMISRTPEVTCVVVDVSHEDPEVKFNWYVDGVEVHNAKTKPREEQYNSTYRVVSVLTVLHQDWLNGKEYKCAVSNKALPAPIEKTISKAKGQPREPQVYTLPPSRDELTKNQVSLTCLVKGFYPSDIAVEWESNGQPENNYKTTPPVLDSDGSFFLYSKLTVDKSRWQQGNVFSCSVMHEALHNHYTQKSLSLSPGSGGGGSGGGGSGGGGSPSEVQLLESGGGLVQPGGSLRLSCAASGFTFSSYAMSWVRQAPGKCLEWVSAISGSGGSTYYADSVKGRFTISRDNSKNTLYLQMNSLRAEDTAVYYCARYYGGYYSAWMDYWGQGTLVTVSSGGGGSGGGGSGGGGSGGGGSDIQMTQSPSSLSASVGDRVTITCRASQSISSFLNWYQQKPGKAPKLLIYAASSLQSGVPSRFSGSGSGTDFTLTISSLQPEDSATYYCQQTYGYLHTFGCGTKLEIKR
notes: also called ALG.APV-210 (biotinylated for FACS detection)
Human CD137 on cells [3]
  EC50 (read off the curve): ~0.3 nM
Human CD137 on cells [4]
  EC50: 0.027 nM
